tested on: Saccharomyces cerevisiae; test: transcriptional activation domain activity (GFP:mCherry ratio, weighted mean of sorted bins, harmonized to initial dataset scale) (arbitrary fluorescence ratio units); higher = stronger transcriptional activation; conditions: beta-estradiol 1 µM; induction time 4 h
Outline: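 Each value is an activation activity: the read-weighted mean of bin median fluorescence, averaged across barcodes, then mapped linearly to the initial dataset scale. The tiles, fused to an estradiol-inducible synthetic transcription factor, sat at the yeast URA3 locus in GFP-reporter diploids. Cells spent 4 hours at 30 °C in SC with 1 uM beta-estradiol before sorting into 8 GFP:mCherry bins, and tiles below 50 reads were removed.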

Sequence | transcriptional activation domain activity
TGGSLFGANKPAFGNAASTSGPFGGGASSGFGGNTGAFGSPASTALGATTGEC | 51300
QRTNEDLDVDYVPYDHMGISFWDHLDPSRIAVPSHHNIFRIVVWLFFLVVYSQ | 53700
RGRRKWNWTVVLYFACRVTTLAAAVTQMTGFNFTSEISCKTWLILTRIFTNTS | 48200
LSHSFFSSCCCLLRTLGRFLLFIIFFLSFYFFIFTFFFFFSFQTYLLLYLLLI | 31400
EYVSLCRTFATREMLKVAIFANIFSKMTRTLACLFVTRISSHVNRLRALLQPI | 61700
VKPRPLPLPVLIAKALREKGLVYFFRSVRVSGSGTAEVVRGKWYMNFLPTLAR | 73200
AITRLSLVIDALKEGMRYDCDHVLETYQYDVLLVAGYFYLAAILDKSGVDPTA | 52000
MSPLDQVAEDDLSKRRKPHTKSRHGCIDCRRRRVKCGEEKPCCRTCVRRGVRC | 44400
QTPTDPESYWSDNRCKHSDCQELSPFASVFDLIDHYDHTHAFIPETLVKYSYI | 17600
MSTEEQADGAPSSASDAGLKIWSCVTCRRRKVRCDRRDPCSNCVRAAIDCHYP | 30100
IVNFTLLVLIVPRLSIWCRPHSKRMHGAGVWDSFVLARASIFVSVLGVLCVAL | 54400
IAAAAEQEEEDEASTSSTNTSNGDANARAHAHAHWESRRERELHADHRGGAGG | 31600
LRYALDLYRSLRAKVWENSPLILRQLEGIGKMILIISLLRKLIGVIIQLMYCF | 55500
VLMLIVSNLRLMIENFKKYGVLICLSCHDYRRQDVIYGSILYLLVPCHLFVAY | 41900
DSRRKRNTSSEEDEPKKTDREERRREYRSRDHNVADEERSNKHRSSRRKHRSA | 7300
KAAAVVASDSDEPVEKPKPRRRNSTSSAKSGKSTKSNRSSRDKTAAGVAAGAG | 20700
FFLLFHIFHCLWGPRATILLFFSILLFFYPISTFMRCIIHRVFLLFFAFFFFL | 22200

Sequence | transcriptional activation domain activity
CLVIRGRSRFQHGPFWLGSFGLLCNIVLLSWTLFSLVFFSFPFVKPIIPGKPF | 76900
MCLFVLCLGLLVFFPTRYLLRSAWIKFIKYFNLFLRIIDLGCLFCIPCLIIKY | 42500
ANGSSATTPEPDGKTAAGTAAVPKRKQTEKKANGPTKKQKTGSPKKGGRKGAS | 27700
MGSQLPHLQLSDTDGAGPMKRRRPALACVECRRRKVKCDRKKPCSPCTRIKSL | 69900
NNNSRSTEDSEDDLAIVGHGTGVERLGGLDALILRQRLLALLIRVAEALPEDF | 15200
EWAPDVLRKSAKTFTQEGPMVKLQIVTLAAKLLVLSPVDPRLTLLCRYVFSLA | 46000
NVLYSRLSILSSLITLSWFLTAHILEYTSIHTCRFSSPHIWWLTFGILCIMYL | 51600
RRSKHSSRSHRSRRHRDRSVSDENGTERRHKSERRHKHRHRSRSGGSRERRHT | 47200
VLHESCGSPVFLLFSCFILLSLWRIVGRISLSILLVLRSLFCCYFPSLLFWLW | 36900
PDGSAITGSAVTKRKQSKSRNGCITCKAKRLKCDETKPSCQQCAKRSVTCGGY | 28100
NWHHSIQVPYSFVANYDHPVCHMLHRWLPLYIPAVALRMHILTYLLLVAFFSL | 57700
IAHRYLVGYVYVRTHSQTGGLVYIWLLKRLGSLLSLQPILLGLIFLSRHLWIE | 55000
PLLACQVAYGFLVVFFSYSLIEEQVGCVIYYEHLVMLCWLVIIMPPNALLSTV | 58700
YCLLYWVWWFLAFSCWVFCLIYIFAIHCLIWVLVWLSVCFLLMGGYLFFCKED | 30600
MGGKASWCVFSFCLLFPLYFLLSLPPSFFIFHFYCVLALLPLPLPFPFFPSIC | 58700
TWLLFRQVVDVILINDFLAYCMFAFSCFRVPTDLSIPVHVMRWLVGITLIWFN | 74100
SSPNTGGGLFGSGGTTSAFGANTTSGFGSTSNTGAFGAKTGAFGATTSAGGGL | 35800

Reference: the supplement of paper PMC12636428
